From patent US20240117038A1 (Ablynx, published 2024)
Positions count from the first letter of the chain named.

What was measured:
[1] = target: T1, human CX3CR1 V249I (human, UniProt P49238 1-355); assay: flow cytometry, AF-647 labelled soluble CX3CL1 on transiently transfected HEK293T cells, human CX3CR1 V249I
T1 construct: Transiently transfected in HEK293T cells (pcDNA3.1); also called huCX3CR1 variant V249I (Rs3732379); printed V2491 in the text
T1 sequence: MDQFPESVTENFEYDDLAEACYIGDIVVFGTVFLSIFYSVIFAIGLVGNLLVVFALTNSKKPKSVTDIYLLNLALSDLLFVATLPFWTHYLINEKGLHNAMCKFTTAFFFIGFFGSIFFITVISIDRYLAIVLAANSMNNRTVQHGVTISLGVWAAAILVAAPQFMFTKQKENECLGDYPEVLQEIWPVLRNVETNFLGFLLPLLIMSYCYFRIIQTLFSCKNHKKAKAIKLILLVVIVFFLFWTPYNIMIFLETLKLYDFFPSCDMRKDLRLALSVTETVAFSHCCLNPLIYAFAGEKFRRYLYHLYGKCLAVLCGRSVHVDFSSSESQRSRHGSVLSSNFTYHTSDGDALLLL

[2] = target: T2, human CX3CR1 (human, UniProt P49238 1-355); assay: flow cytometry, AF-647 labelled soluble CX3CL1 on transiently transfected HEK293T cells, human CX3CR1 WT
T2 construct: Overexpressed on CHO K1, Ba/F3 or HEK293T cells; also called huCX3CR1; hCX3CR1
T2 sequence: T1 sequence with I249V

[3] = target: T3, human CX3CR1 V249I/T280M (human, UniProt P49238 1-355); assay: flow cytometry, AF-647 labelled soluble CX3CL1 on transiently transfected HEK293T cells, human CX3CR1 V249I/T280M
T3 construct: Transiently transfected in HEK293T cells (pcDNA3.1); also called huCX3CR1 variant V249I and T280M
T3 chain: T1 sequence with T280M

[4] = target: T2, human CX3CR1; assay: cell-based or functional assay
[5] = target: T4, mouse CX3CR1 (mouse, UniProt Q9Z0D9 1-354); assay: cell-based or functional assay
T4 sequence (looked up): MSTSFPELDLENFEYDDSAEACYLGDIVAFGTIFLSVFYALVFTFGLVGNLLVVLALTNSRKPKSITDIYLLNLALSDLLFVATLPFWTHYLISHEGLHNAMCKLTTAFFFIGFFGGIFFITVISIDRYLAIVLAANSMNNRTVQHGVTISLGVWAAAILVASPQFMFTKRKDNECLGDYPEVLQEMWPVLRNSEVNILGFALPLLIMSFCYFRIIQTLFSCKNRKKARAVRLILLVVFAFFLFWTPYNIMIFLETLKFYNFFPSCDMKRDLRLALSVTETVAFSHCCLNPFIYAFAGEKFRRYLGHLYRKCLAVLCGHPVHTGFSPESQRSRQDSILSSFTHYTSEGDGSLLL

[6] = target: T5, human CX3CR1 T280M (human, UniProt P49238 1-355); assay: flow cytometry, AF-647 labelled soluble CX3CL1 on transiently transfected HEK293T cells, human CX3CR1 T280M
T5 construct: Transiently transfected in HEK293T cells (pcDNA3.1); also called huCX3CR1 variant T280M (Rs3732378)
T5 sequence: T1 sequence with I249V, T280M

EC50 [1]: 2.1 nM | EC50 [2]: 3.3 nM | EC50 [3]: 4.2 nM | EC50, ERK phosphorylation in CHO K1 huCX3CR1 cells [4]: 2 nM | EC50, ERK phosphorylation in CHO K1 mCX3CR1 cells [5]: 2.5 nM | EC50 [6]: 19 nM
B1: human CX3CL1/Fraktalkine (ligand, UniProt P78423 25-339, looked up)
chain: QHHGVTKCNITCSKMTSKIPVALLIHYQQNQASCGKRAIILETRQHRLFCADPKEQWVKDAMQHLDRQAAALTRNGGTFEKQIGEVKPRTTPAAGGMDESVVLEPEATGESSSLEPTPSSQEAQRALGTSPELPTGVTGSSGTRLPPTPKAQDGGPVGTELFRVPPVSTAATWQSSAPHQPGPSLWAEAKTSEAPSTQDPSTQASTASSPAPEENAPSEGQRVWGQGQSPRPENSLEREEMGPVPAHTDAFQDWGPGSMAHVSVVPVSSEGTPSREPVASGSWTPKAEEPIHATMDPQRLGVLITPVPDAQAATR
modifications: labelled with AF647 (in house) in the binding and competition assays; unlabelled in the chemotaxis and pERK assays
notes: Bought protein; also called huCX3CL1; huCX3CL1-AF647
